Test results as given in patent US20030166571A1 (SYNVAX, published 2003).
Numbered stars: 1 amine (or outer) side, 2 acyl side, 3 side chain; on linkers, the order of the positions; unused ones are H or OH. Square brackets hold non-standard residues; d marks the D form. Ends that are not written are not given here. * marks the point of attachment. Tyr(BN,3-Cl) = tyrosine with benzyl (BN) and 3-Cl, O=C([C@H](Cc1ccc(OCc2ccccc2)c(Cl)c1)N[*:1])[*:2]; Phe(4-NO2) = N[C@@H](Cc1ccc([N+](=O)[O-])cc1)C(=O)O; Phe(4-SO3H) = N[C@@H](Cc1ccc(S(=O)(=O)O)cc1)C(=O)O; Trp(5-CN) = N#Cc1ccc2[nH]cc(C[C@H](N)C(=O)O)c2c1; Phe(4-COOH) = N[C@@H](Cc1ccc(C(=O)O)cc1)C(=O)O; Phe(4-CN) = N#Cc1ccc(C[C@H](N)C(=O)O)cc1; Phe(4-F) = N[C@@H](Cc1ccc(F)cc1)C(=O)O; Phe(4-Me) = Cc1ccc(C[C@H](N)C(=O)O)cc1; hPhe = N[C@@H](CCc1ccccc1)C(=O)O; Phg = N[C@H](C(=O)O)c1ccccc1; Ac6c = NC1(C(=O)O)CCCCC1; Pentanoyl = CCCCC(=O)*; Ahx = NCCCCCC(=O)O

Legend:
[1] = target: T1, human ORL-1 receptor (opioid receptor like 1) (human, UniProt P41146 1-370); test: [3H]nociceptin displacement, membranes of CHO cells transfected with human ORL-1; Ki=IC50/(1+L/Kd)
T1 construct: whole, on cells; Assays were run on membranes of CHO cells transfected with human ORL-1; also called opiate receptor like 1; nociceptin receptor
Description: Receptor binding studies were conducted on human ORL1 (opiate receptor like 1) transfected into Chinese hamster ovary (CHO) cells using each of the hexapeptide analog compounds of Table 3. All the compounds were evaluated for binding affinities. […] The data shown in Table 5 represents the average±SEM of at least two experiments conducted in triplicate.
Cells are removed from the plates by scraping with a rubber policeman, and then homogenized in Tris buffer using a Polytron homogenizer. Following this homogenization step, the cellular mixture is centrifuged once and washed by an additional centrifugation at 40,000×g for 15 min. The pellet formed during the centrifugation is re-suspended in 50 mM Tris, pH 7.5. […] Samples of the suspension are then filtered over glass fiber filters using a Wallac cell harvester.
For the data in Table 5, binding was conducted as described above. IC₅₀ values and Hill coefficients were determined using the curve-fitting program Prism. K₁ values were calculated using the equation K₁=IC₅₀/(1+[L]/Kd). […] The data in Table 5 represent the average±SEM of at least two experiments conducted in triplicate.

[2] = target: T1, human ORL-1 receptor (opioid receptor …); test: cell-based or functional assay

T1 sequence (P41146 whole entry): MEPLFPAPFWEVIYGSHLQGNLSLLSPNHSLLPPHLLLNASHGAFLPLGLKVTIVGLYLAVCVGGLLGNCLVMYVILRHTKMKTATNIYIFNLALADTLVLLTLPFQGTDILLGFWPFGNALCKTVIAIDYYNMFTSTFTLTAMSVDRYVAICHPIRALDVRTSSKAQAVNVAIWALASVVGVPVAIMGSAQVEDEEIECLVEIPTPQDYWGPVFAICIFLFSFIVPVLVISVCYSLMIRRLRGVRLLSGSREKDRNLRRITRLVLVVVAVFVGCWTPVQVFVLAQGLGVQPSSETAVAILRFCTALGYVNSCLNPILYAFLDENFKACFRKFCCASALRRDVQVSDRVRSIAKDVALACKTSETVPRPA

| Binder | Ki [1] | % Stimulation of [35S]GTPγS binding [2] | EC50 (nM) of stimulation of [35S]GTPγS binding [2] |
| --- | --- | --- | --- |
| {β‑Nva}-RYYRWR-NH2 (also called β-Nva-Arg-Tyr-Tyr-Arg-Trp-Arg-NH2) [VII-2-A] | 11.8 nM | < 20% | – |
| Ac-R[Phe(4-Me)]YRWR-NH2 (SMILES CC(=O)N[C@@H](CCCNC(=N)N)C(=O)N[C@@H](Cc1ccc(C)cc1)C(=O)N[C@@H](Cc1ccc(O)cc1)C(=O)N[C@@H](CCCNC(=N)N)C(=O)N[C@@H](Cc1c[nH]c2ccccc12)C(=O)N[C@@H](CCCNC(=N)N)C(N)=O, also called Ac-Arg-Phe(4-Me)-Tyr-Arg-Trp-Arg-NH2) [VII-15-B] | 0.48 nM | 59.8% | 18.8 nM |
| Ac-[Ahx]YYRWR-NH2 (SMILES CC(=O)NCCCCCC(=O)N[C@@H](Cc1ccc(O)cc1)C(=O)N[C@@H](Cc1ccc(O)cc1)C(=O)N[C@@H](CCCNC(=N)N)C(=O)N[C@@H](Cc1c[nH]c2ccccc12)C(=O)N[C@@H](CCCNC(=N)N)C(N)=O, also called Ac-ε-aminocaproyl-Tyr-Tyr-Arg-Trp-Arg-NH2) [VII-53-B] | 29.1 nM | 39.5% | 167 nM |
| Ac-R[Phe(4-CN)]YRWR-NH2 (SMILES CC(=O)N[C@@H](CCCNC(=N)N)C(=O)N[C@@H](Cc1ccc(C#N)cc1)C(=O)N[C@@H](Cc1ccc(O)cc1)C(=O)N[C@@H](CCCNC(=N)N)C(=O)N[C@@H](Cc1c[nH]c2ccccc12)C(=O)N[C@@H](CCCNC(=N)N)C(N)=O, also called Ac-Arg-Phe(4-CN)-Tyr-Arg-Trp-Arg-NH2) [VII-43-C] | 0.15 nM | 49.7% | 29.5 nM |
| Ac-R[Phg][Phg]RWR-NH2 (SMILES CC(=O)N[C@@H](CCCNC(=N)N)C(=O)N[C@H](C(=O)N[C@H](C(=O)N[C@@H](CCCNC(=N)N)C(=O)N[C@@H](Cc1c[nH]c2ccccc12)C(=O)N[C@@H](CCCNC(=N)N)C(N)=O)c1ccccc1)c1ccccc1, also called Ac-Arg-Phg-Phg-Arg-Trp-Arg-NH2) [VII-11-B] | 30.4 nM | – | – |
| Ac-R[Phe(4-Me)][Phe(4-Me)]RWR-NH2 (SMILES CC(=O)N[C@@H](CCCNC(=N)N)C(=O)N[C@@H](Cc1ccc(C)cc1)C(=O)N[C@@H](Cc1ccc(C)cc1)C(=O)N[C@@H](CCCNC(=N)N)C(=O)N[C@@H](Cc1c[nH]c2ccccc12)C(=O)N[C@@H](CCCNC(=N)N)C(N)=O, also called Ac-Arg-Phe(4-Me)-Phe(4-Me)-Arg-Trp-Arg-NH2) [VII-17-B] | 10.1 nM | < 20% | – |
| [Ac6c]RYYRWR-NH2 (N-terminus assumed; SMILES N=C(N)NCCC[C@H](NC(=O)[C@H](Cc1c[nH]c2ccccc12)NC(=O)[C@H](CCCNC(=N)N)NC(=O)[C@H](Cc1ccc(O)cc1)NC(=O)[C@H](Cc1ccc(O)cc1)NC(=O)[C@H](CCCNC(=N)N)NC(=O)C1(N)CCCCC1)C(N)=O, also called 1-aminocyclohexanoyl-Arg-Tyr-Tyr-Arg-Trp-Arg-NH2) [VII-4-B] | 9.25 nM | < 20% | – |
| Ac-R[Phe(4-F)][Phe(4-F)]RWR-NH2 (SMILES CC(=O)N[C@@H](CCCNC(=N)N)C(=O)N[C@@H](Cc1ccc(F)cc1)C(=O)N[C@@H](Cc1ccc(F)cc1)C(=O)N[C@@H](CCCNC(=N)N)C(=O)N[C@@H](Cc1c[nH]c2ccccc12)C(=O)N[C@@H](CCCNC(=N)N)C(N)=O, also called VII-33-C; Ac-Arg-Phe(4-F)-Phe(4-F)-Arg-Trp-Arg-NH2) [VII-33-B] | 1.51 nM | < 20% | – |
| Ac-RYY[Ahx]WR-NH2 (SMILES CC(=O)N[C@@H](CCCNC(=N)N)C(=O)N[C@@H](Cc1ccc(O)cc1)C(=O)N[C@@H](Cc1ccc(O)cc1)C(=O)NCCCCCC(=O)N[C@@H](Cc1c[nH]c2ccccc12)C(=O)N[C@@H](CCCNC(=N)N)C(N)=O, also called Ac-Arg-Tyr-Tyr-ε-aminocaproyl-Trp-Arg-NH2) [VII-55-A] | 39 nM | 26.6% | 1230 nM |
| Nipacotyl-RYYRWR-NH2 (also called Nipacotyl-Arg-Tyr-Tyr-Arg-Trp-Arg-NH2) [VII-1-A] | 30.3 nM | < 20% | – |
| Ac-R[Phe(4-F)]YRWR-NH2 (SMILES CC(=O)N[C@@H](CCCNC(=N)N)C(=O)N[C@@H](Cc1ccc(F)cc1)C(=O)N[C@@H](Cc1ccc(O)cc1)C(=O)N[C@@H](CCCNC(=N)N)C(=O)N[C@@H](Cc1c[nH]c2ccccc12)C(=O)N[C@@H](CCCNC(=N)N)C(N)=O, also called Ac-Arg-Phe(4-F)-Tyr-Arg-Trp-Arg-NH2) [VII-31-B] | 0.52 nM | 54.4% | 35.7 nM |
| {β‑aminoisobutryl}-RYYRWR-NH2 (also called β-aminoisobutryl-Arg-Tyr-Tyr-Arg-Trp-Arg-NH2) [VII-3-A] | 1.18 nM | 29.1% | 68 nM |
| Ac-R[Phe(4-SO3H)]YRWR-NH2 (also called Ac-Arg-Phe(SO3H)-Tyr-Arg-Trp-Arg-NH2) [VII-27-B] | 155 nM | – | – |
| Ac-RYYR[Trp(5-CN)]R-NH2 (SMILES CC(=O)N[C@@H](CCCNC(=N)N)C(=O)N[C@@H](Cc1ccc(O)cc1)C(=O)N[C@@H](Cc1ccc(O)cc1)C(=O)N[C@@H](CCCNC(=N)N)C(=O)N[C@@H](Cc1c[nH]c2ccc(C#N)cc12)C(=O)N[C@@H](CCCNC(=N)N)C(N)=O, also called Ac-Arg-Tyr-Tyr-Arg-Trp(5-CN)-Arg-NH2) [VII-51-A] | 0.3 nM | 49.1% | 156 nM |
| Ac-R[Tyr(4-Me)][Tyr(4-Me)]RWR-NH2 (also called Ac-Arg-Tyr(4-Me)-Tyr(4-Me)-Arg-Trp-Arg-NH2) [VII-37-B] | 6.29 nM | < 20% | – |
| Pentanoyl-RYYRWR-NH2 (SMILES CCCCC(=O)N[C@@H](CCCNC(=N)N)C(=O)N[C@@H](Cc1ccc(O)cc1)C(=O)N[C@@H](Cc1ccc(O)cc1)C(=O)N[C@@H](CCCNC(=N)N)C(=O)N[C@@H](Cc1c[nH]c2ccccc12)C(=O)N[C@@H](CCCNC(=N)N)C(N)=O, also called Pentanoyl-Arg-Tyr-Tyr-Arg-Trp-Arg-NH2; Pentanoyl-RYYRWR-NH2) [VII-7-B] | 0.16 nM | < 20% | – |
| Ac-R[Phe(4-COOH)]YRWR-NH2 (SMILES CC(=O)N[C@@H](CCCNC(=N)N)C(=O)N[C@@H](Cc1ccc(C(=O)O)cc1)C(=O)N[C@@H](Cc1ccc(O)cc1)C(=O)N[C@@H](CCCNC(=N)N)C(=O)N[C@@H](Cc1c[nH]c2ccccc12)C(=O)N[C@@H](CCCNC(=N)N)C(N)=O, also called Ac-Arg-Phe(4-COOH)-Tyr-Arg-Trp-Arg-NH2) [VII-19-B] | 40.6 nM | 45.5% | 854 nM |
| Ac-R[Phe(4-NO2)]YRWR-NH2 (SMILES CC(=O)N[C@@H](CCCNC(=N)N)C(=O)N[C@@H](Cc1ccc([N+](=O)[O-])cc1)C(=O)N[C@@H](Cc1ccc(O)cc1)C(=O)N[C@@H](CCCNC(=N)N)C(=O)N[C@@H](Cc1c[nH]c2ccccc12)C(=O)N[C@@H](CCCNC(=N)N)C(N)=O, also called Ac-Arg-Phe(NO2)-Tyr-Arg-Trp-Arg-NH2) [VII-23-B] | 0.44 nM | 56.6% | 15.7 nM |
| Ac-RY[Phg]RWR-NH2 (SMILES CC(=O)N[C@@H](CCCNC(=N)N)C(=O)N[C@@H](Cc1ccc(O)cc1)C(=O)N[C@H](C(=O)N[C@@H](CCCNC(=N)N)C(=O)N[C@@H](Cc1c[nH]c2ccccc12)C(=O)N[C@@H](CCCNC(=N)N)C(N)=O)c1ccccc1, also called Ac-Arg-Tyr-Phg-Arg-Trp-Arg-NH2) [VII-13-B] | 27 nM | – | – |
| Ac-R[hPhe][hPhe]RWR-NH2 (SMILES CC(=O)N[C@@H](CCCNC(=N)N)C(=O)N[C@@H](CCc1ccccc1)C(=O)N[C@@H](CCc1ccccc1)C(=O)N[C@@H](CCCNC(=N)N)C(=O)N[C@@H](Cc1c[nH]c2ccccc12)C(=O)N[C@@H](CCCNC(=N)N)C(N)=O, also called Ac-Arg-hPhe-hPhe-Arg-Trp-Arg-NH2) [VII-49-B] | 5.49 nM | < 20% | – |
| Ac-R[Tyr(BN,3-Cl)]YRWR-NH2 (also called Ac-Arg-Tyr(BN*, 3-Cl)-Tyr-Arg-Trp-Arg-NH2) [VII-39-D] | 0.03 nM | 89% | 0.3 nM |
| Ac-R[Tyr(4-Me)]YRWR-NH2 (also called Ac-Arg-Tyr(4-Me)-Tyr-Arg-Trp-Arg-NH2) [VII-35-C] | 0.43 nM | 52.1% | 51.1 nM |
